Reference: the nanobody polyreactivity screen of Harvey et al. (2022)

Assay: yeast display, Sf9 membrane polyspecificity reagent, FACS + sequencing; frameworks hold sequencing errors
Method in brief: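 Sorting gates, low and high (top ~1%), were placed on anti-HA fluorescence to track expression and on streptavidin fluorescence to track reagent binding. A clone's polyreactivity label is taken from the gate it came out of. The reagent was 10% biotinylated, detergent-solubilized Sf9 membrane, applied for 1 hour at 4 °C to galactose-induced yeast display cells.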

QVQLVESGGGLVQAGGSLRLSCAASGRTFYYYAMGWYRQAPGKERELVAAITSNGGSTYYADSVKGRFTISRDNAKNTVYLPMNSLKPEDTAVYYCAADTYWYLSPYDYWGQGTQVTVSS
polyreactivity (PSR sort gate): low polyreactivity

QVQLVESGGGLVQAGGSLRLSCAASGSIFPVNTMGWYRQAPGKERELVAAITQRGGRTYYADSVKGRFTISRDNAKNTVYFQMNSLKPEDTAVYYCNRDLGAGGYDYWGQGTQVTVSS
polyreactivity (PSR sort gate): low polyreactivity

QVQLVESGGGLVQAGGSLRLSCAASGRNSIYYALGWYRQAPGTDRELVAAITTTGSTKYADSVKGRFTISRDNAKKTVDLQMNSLKPEDTADYYCAARFSRWWVRYGYWGQATQVTVSS
polyreactivity (PSR sort gate): high polyreactivity

QVQLVESGGGLVQAGGSLRLSCAASGSTFAPNAMGWYRQAPGKERELVAAISSGSSTYYADSVKGRFTISRDNAKNTVYLQMNSLKPEDTAVYYCARRVSWGYYYWGQGTQVTVSS
polyreactivity (PSR sort gate): high polyreactivity

QVQLVESGGGLVQAGCSLRLSCAASGRIFTGNAMGWYRQAPGKERELVAAISRSGGRTYYADSVKGRFTISRDNAKNTVYLQMNSLKPEDTAVYYCAAAGYYHTYWGTMDYWGQGTQVTVSS
polyreactivity (PSR sort gate): high polyreactivity

QVHLVESGGGLVQEGGSLRLSCAASGIIFLWYTMGWYRQAPGKERELVATISWGGGSTYADSVNGRFTISRDNAKNTVYIQMYILQPEDTAVYYCAADNRDFRGQGYDYWGQGTQVTVSS
polyreactivity (PSR sort gate): low polyreactivity

QVQLVESGGGLVQAGGRLRLSCAASGSIFQPYAMGWSRQAPGKERELVAAINGRGGSTHYADSVKGRFTISRDNAKNTVYLQMNSLKPEDTAVYYWNRPKWYDGDYWGQGTQVTVSS
polyreactivity (PSR sort gate): high polyreactivity

QVQLVESGGGLVQAVGSLRLSCAASGSISVYYAMGWYRQAPGKEMELVAAISRSGGRTYYADSVKGRFTISRDNAKNTVYLQMNSLKPEDTAVYYCAAGYSSLRRFGVYYWGQGTQVTVSS
polyreactivity (PSR sort gate): high polyreactivity

QVQLVESGGGLVQAGGSLRLSCAASGSIFVYNDMGWYRQAPGKERELVAGIDWSGDRTYADSVKGRFTISRDNAKNTVYLQLNSLKPEDTAVYYCNADDWRWDEIIPYAVDYWGQGTQVTVSS
polyreactivity (PSR sort gate): low polyreactivity

QVQLVESGGGLVQAGGSLRLSCAASGSTFTWYAMGWYRQAPWKERELVADISYGGGSTYYADSVKGRFTISRDNAKNTVYLQMNSLKPEDTEVYYCAAASYLYLYLLEDYWGQGTQVTVSS
polyreactivity (PSR sort gate): low polyreactivity

QVQLVESGGGLVQAGGSLRLSCAASGRIFHRYAMGWYRQAPGKERELVAAITRGGSTNYADSVKGRFTISRDNAKNTVYLQMNSLKPEDTAVYYCNADVYAWYLSHRYDYWGQGTQVTVSS
polyreactivity (PSR sort gate): low polyreactivity

QVQLVESGGGLVQAGGSLRLSCAASGSTFVRYAMGWYRQAPGKERELVATISSRGGRTYYADSVKGRFTISRDNAKNTVYLQMNSLKPEDTAVYYCAADRRAAVPFGYGYWGQGTQVTVSS
polyreactivity (PSR sort gate): high polyreactivity

QVQLVESGGGLVQAGGSLRLSCAASGSTFKRYAMGWYRQAPGKERELVAAITNGDRTNYADSVKGRFTISRDNAKNTVYLQMNSLKPEDTAVYYCAAAYSRYTSRFYYWGQGTQVTVSS
polyreactivity (PSR sort gate): high polyreactivity

QVQLVESGGGLVQAGGSLRLSCEASGRIFGWYAMGWYRQAPGNERELVAALTNSGGSTYYADSVKGRFTISRDYEKNTVYFQMNRLKPEDTGVYFCAAESWIRRWYGGGKKYEYWGQGTQVTVSS
polyreactivity (PSR sort gate): high polyreactivity

QVQLVESGGGLVQAGGSLRLSCAASGGTFRRYAMGWYRQAPGKERELVAAISWTGGSTYYADSVKGRFTISRDNAKNTVYLQMNSLKPEDTAVYYCAAVGSSSSKGGYWGQGTQVTVSS
polyreactivity (PSR sort gate): high polyreactivity

QVQLVESGGGLVQAGGSLRLSCAASGSIFGAYAMGWYRQAPGKERELVAAISGSGTSTYYADSVKGRFTISRDNAKNTVYLQMNSLKPEDTAVYYCAADGTYFYLYLGDRFDYWGQGTQVTVSS
polyreactivity (PSR sort gate): low polyreactivity

QVQLVESGGGLVQAGGSLRLSCAASGRTFNTYAMGWYRQAPGKERELVAAISKRGGSTYYADSVKGRFTISRDNAKNTVYLQMNSLKPEDTAVYYCNAKGNVRMYWGQGTQVTVSS
polyreactivity (PSR sort gate): high polyreactivity

QVQLVESGRGLVQAGGSLRISCAASGSTFIFNTMGWYRQAPGKEMELVATITGDGRTNYADSVKGRFTISRDNAKNTVYLQMNSLKPEDTAVYYCDADGYDQYPLWSPPGDYWGQGTQVTVSS
polyreactivity (PSR sort gate): low polyreactivity

QVQLVESGGGLVQAGGSLRLICAASGSIFVNYAMGWYRQAPGKERELVAAITRSGGGTYYADSVKGRFTISRDNAKNTVYLQMNSLKPEVTAVYYCAARLGYAGNRDGYWGQGTQVTVSS
polyreactivity (PSR sort gate): high polyreactivity

QVQLVESGGGLVQAGGSLRLSCAASGSTFGLYAMGWYRQAPGKERELVAAISSRGSRTYYADSVKGRFTISRDNAKNTVYLQMNSLKPEDTAVYYCNALYASSVRHKVTYDYWGQGTQVTVSS
polyreactivity (PSR sort gate): high polyreactivity

QVQLVESGGGLVQAGGSLRLSCAASGSTFAGNAMGWYRQAPGKERELVAAISSSGAGTYYADSVKGRFTISRDNAKNTVYLQMNSLKPEDTAVYYCNVGSRALRRRVRSVSFDYWGQGTQVTVSS
polyreactivity (PSR sort gate): low polyreactivity

QVHLLESGGGLVQAGGSLRLSCAASGRTFIRNAMGWYRQAPGKERELVASIRWSGGSTYYADSVKGRFTISRDNAKNTVYLQMNSLKPEDTAVYYCARRKQSFGSWPPSEPVADDYWGQGTQVTVSS
polyreactivity (PSR sort gate): low polyreactivity

QVQLVESGGGLVQAGGSLRLSCAASGSTFTGYAMGWYRPAPGKERELVAAISRSVGRTYYADSVKGRFTISRDNAKNTVYLQMNSLKPEDTAVYYCAADVYLTGSRNYYWGQGTQVTVSS
polyreactivity (PSR sort gate): high polyreactivity

QVQLVESGGGLVQAGGSLRLSCAASGRTFLIYAMGWYRQAPGKERELVAAITNAVDSTYYADSVKGRFTISRDNAKNTVYLQMNSLKPEDTAVYYCNADTVVEWYSPSREYDYWGQGTQVTVSS
polyreactivity (PSR sort gate): low polyreactivity

QVQLVESGGGLVQAGGSLRLSCAASGFTFRLYTMGWYRQAPGKDRELVAGISTSGGSTYYADSVKGRFTISRDNAKNTVYLQMNSLKPEDTAVYYCAAQAFTSYDYWGQGTQVTVSS
polyreactivity (PSR sort gate): high polyreactivity

QVQLVESGGGLVQAGGILSLSCAASGRIFPDNTMGWYRQAPGKQRELVAVITYSGGSTYYADSVKGRFTISRDNAKNTVYLQMNSLNPEDTAVYYCAARDFYIWFAEVDYWGQGTLVTVSS
polyreactivity (PSR sort gate): low polyreactivity

QVQLVESGGGLVQAGGSLRLSCAASGSTFVYMGWYRQAPGKEREFVAAITWSGGSTYYADSVKGRFTISRDNAKNTVYLQMNSLKPEDTAVYYCNAVSDIPGWARYYYWGQGTQVTVSS
polyreactivity (PSR sort gate): low polyreactivity

QVQLVESGGGLVQAGGSLRLSCAASGSTLFSYAMGWYRQAPGKEREFVAAISRRGGSTYYEDSVKGRFTISRDYAKNTVYLQMNSLKPEETAVYYCAARDSSYNWYGYWGQGTQVTVSW
polyreactivity (PSR sort gate): high polyreactivity

KVQLVESGGGLVQAGGSLRLSCAASGIIFGRYAMGWYRQAPGKERELVATISRSGGTTYYADSVKGRFTISRDNAKNTVYLQMNSLKPEDTAVYYCAARWTSRYDYWGQGTQVTVSS
polyreactivity (PSR sort gate): high polyreactivity

QVKLVESGGGLVQAGGSLRLSCAASGSTFVVNAMGCYRQAPGKERELVAAITQSGGSTFYADSVKGRFTISRDNAKNTVYLQMNSLKPEDTAVYYCAADTYYYYWFACYTEYDYWGQGTQVTVSS
polyreactivity (PSR sort gate): low polyreactivity

QFQLVESGGGLVQAGGSLRLSCAASGFIFAVNAMGWYRQAPGKERELVAAISSSGTTNYADSVKGRFTISRDNAKNTVYLQMNSLKPEDTAVYYCNKRWRDKYPQYDYWGQGTQVTVSS
polyreactivity (PSR sort gate): low polyreactivity

QVQLVESGGGLVQAGGSLRLSCAASGSIFGSYAMGWYRQAPGKERELVAAITSAGSTNYADSVKGRFTISRDNAKNTVYLQMNSLKPEDTAVYYCAVRPGFGRSLWYGYWGQGTQVTVSS
polyreactivity (PSR sort gate): low polyreactivity

QVQLVESGGGLVQAGGSLRLSCAASGSIFVGNAMGWYRQAPGKERELVAAINSGGSTYYADSVKGRFTISRDNAKNTVYLQMNSLKPEDTAVYYCAAEGTYSYYLYEYWGLGTQVTVSS
polyreactivity (PSR sort gate): low polyreactivity

QVQLVESGGGLVQAGGSLRLSCAASGRIFTAYYAMGWYRQAPGKERELVASISSSGTSTYADSVKGRFTISRDNAKNTVYLQMNSLKPEDTAVYYCATRKLRTRRYDYGYWGQGTQVTVSS
polyreactivity (PSR sort gate): low polyreactivity

QVHLVDSGGGLVQAGGSLRLSCAASGFTFDYYAMGWYRQAPGKERELVAAITSDGSTYYADSVKGRFTISRDNAKNTVYLQMNSLKPEDTAVYYCAADGISLYATAYDYWGQGTQVTVSS
polyreactivity (PSR sort gate): low polyreactivity

QVQLVESGGGLVQAGGSLRLSCAASGLTFHWYTMGGYRQAPGKERELVAAISSRGGSTYYADSVKGRFTISRDNAKNTDYLQMNSLKPEDTAVYYCAKARRVGFTPIYENWGQGTQVTVSS
polyreactivity (PSR sort gate): high polyreactivity

QVQLVESGGGLVQAGGSLRLSCAASGSTFLGYAMGWSRQAPGKERELVAAISWSGGSTYYADSVKGRFTISRDNAKNTVYLQMNRLKPEDTAVYYCNAVGYLDFEWGQGTQVTVSS
polyreactivity (PSR sort gate): low polyreactivity

QVQLVESGGGLVQAGGSLRLSCAASGRTFGVYAMGWYRQAPGKERELVAAISATGGSTYYADSVKGRFTISRDNAKNTVYLQMNSLKPEDTAVYYCARGGTTLYWGQGTQVTVSS
polyreactivity (PSR sort gate): high polyreactivity

QVQLVESWGGLVQAGGSLRLSCAASGRIFKRNTMGWNRQAPGKQRELVAAITGSSGSTYYADSVKGRFTNSRDNAKNTVYLQMNSLKPEDTAVYYCNTVRSVYQYWPYNYWGQGTQVTVSS
polyreactivity (PSR sort gate): high polyreactivity

QVQLVESGGGLVQAGGSLSLICAASGFTFYIYAMGWSRQAPRKERELVAAISSSGGSTYYADSVKGRFTISRDNAKITVYLQMNSLKPEDTAVYYCARRLLRGSDWGQGTQVTVSS
polyreactivity (PSR sort gate): high polyreactivity

QVQLVESAGGLVQAGGSLRLSCAASGRTLTGNALGWYRQAPGKESELVAAITARGGSTKYADSVKGRFTISRDNAKNTVYFLMNSLKPEDTAVFYCAAGCWYYLHMDYWGQGTQVTVSS
polyreactivity (PSR sort gate): high polyreactivity

QVQLVESGAGLVQAGGSLRLSCAPSGFIFFVNAMGWYRQAPGKERELVADITKIDGTTYYADSVKGRFTISRDNAKNTVYLQMNSLKPEDTAVYYCAAGYRQLSSVRDYDYWGQGTQVTVSS
polyreactivity (PSR sort gate): low polyreactivity

QVQLVESGGGLVQAGGSLRLICAASGYIFRYYVMGWYRQAPGKERELVAAITGIDGSTYYADSVKGRFTISRDNAKNTVYLQMNSLKPEDTAVYYCAAVIGDSSYTFYYDMDYWGQGTQVTVSS
polyreactivity (PSR sort gate): low polyreactivity
